B1: human 20S proteasome subunit α3 (natural protein)
chain: MSRRYDSRTTIFSPEGRLYQVEYAMEAIGHAGTCLGILANDGVLLAAERRNIHKLLDEVFFSEKIYKLNEDMACSVAGITSDANVLTNELRLIAQRYLLQYQEPIPCEQLVTALCDIKQAYTQFGGKRPFGVSLLYIGWDKHYGFQLYQSDPSGNYGGWKATCIGNNSAAAVSMLKQDYKEGEMTLKSALALAIKVLNKTMDVSKLSAEKVEIATLTRENGKTVIRVLKQKEVEQLIKKHEEEEAKAEREKKEKEQKEKDK
notes: 20S proteasome subunit α3, human; named only as α3; Stood in the experiment as a subunit of the whole 20S core particle; source: bought: Boston Biochem, as part of the human 20S proteasome
B2: human 20S proteasome subunit α7 (natural protein)
chain: MSSIGTGYDLSASTFSPDGRVFQVEYAMKAVENSSTAIGIRCKDGVVFGVEKLVLSKLYEEGSNKRLFNVDRHVGMAVAGLLADARSLADIAREEASNFRSNFGYNIPLKHLADRVAMYVHAYTLYSAVRPFGCSFMLGSYSVNDGAQLYMIDPSGVSYGYWGCAIGKARQAAKTEIEKLQMKEMTCRDIVKEVAKIIYIVHDEVKDKAFELELSWVGELTNGRHEIVPKDIREEAEKYAKESLKEEDESDDDNM
notes: 20S proteasome subunit α7, human; named only as α7; Stood in the experiment as a subunit of the whole 20S core particle; source: bought: Boston Biochem, as part of the human 20S proteasome
B3: human 20S proteasome subunit α2 (natural protein)
chain: MAERGYSFSLTTFSPSGKLVQIEYALAAVAGGAPSVGIKAANGVVLATEKKQKSILYDERSVHKVEPITKHIGLVYSGMGPDYRVLVHRARKLAQQYYLVYQEPIPTAQLVQRVASVMQEYTQSGGVRPFGVSLLICGWNEGRPYLFQSDPSGAYFAWKATAMGKNYVNGKTFLEKRYNEDLELEDAIHTAILTLKESFEGQMTEDNIEVGICNEAGFRRLTPTEVKDYLAAIA
notes: 20S proteasome subunit α2, human; named only as α2; Stood in the experiment as a subunit of the whole 20S core particle; source: bought: Boston Biochem, as part of the human 20S proteasome
B4: human 20S proteasome subunit α4 (natural protein)
chain: MSYDRAITVFSPDGHLFQVEYAQEAVKKGSTAVGVRGRDIVVLGVEKKSVAKLQDERTVRKICALDDNVCMAFAGLTADARIVINRARVECQSHRLTVEDPVTVEYITRYIASLKQRYTQSNGRRPFGISALIVGFDFDGTPRLYQTDPSGTYHAWKANAIGRGAKSVREFLEKNYTDEAIETDDLTIKLVIKALLEVVQSGGKNIELAVMRRDQSLKILNPEEIEKYVAEIEKEKEENEKKKQKKAS
notes: 20S proteasome subunit α4, human; named only as α4; Stood in the experiment as a subunit of the whole 20S core particle; source: bought: Boston Biochem, as part of the human 20S proteasome
B5: human 20S proteasome subunit α5 (natural protein)
chain: MFLTRSEYDRGVNTFSPEGRLFQVEYAIEAIKLGSTAIGIQTSEGVCLAVEKRITSPLMEPSSIEKIVEIDAHIGCAMSGLIADAKTLIDKARVETQNHWFTYNETMTVESVTQAVSNLALQFGEEDADPGAMSRPFGVALLFGGVDEKGPQLFHMDPSGTFVQCDARAIGSASEGAQSSLQEVYHKSMTLKEAIKSSLIILKQVMEEKLNATNIELATVQPGQNFHMFTKEELEEVIKDI
notes: 20S proteasome subunit α5, human; named only as α5; Stood in the experiment as a subunit of the whole 20S core particle; source: bought: Boston Biochem, as part of the human 20S proteasome

The results in this text go back to paper PMC7077846 (PLoS Biology, 2020).

T1 sequence (Q14997 whole entry): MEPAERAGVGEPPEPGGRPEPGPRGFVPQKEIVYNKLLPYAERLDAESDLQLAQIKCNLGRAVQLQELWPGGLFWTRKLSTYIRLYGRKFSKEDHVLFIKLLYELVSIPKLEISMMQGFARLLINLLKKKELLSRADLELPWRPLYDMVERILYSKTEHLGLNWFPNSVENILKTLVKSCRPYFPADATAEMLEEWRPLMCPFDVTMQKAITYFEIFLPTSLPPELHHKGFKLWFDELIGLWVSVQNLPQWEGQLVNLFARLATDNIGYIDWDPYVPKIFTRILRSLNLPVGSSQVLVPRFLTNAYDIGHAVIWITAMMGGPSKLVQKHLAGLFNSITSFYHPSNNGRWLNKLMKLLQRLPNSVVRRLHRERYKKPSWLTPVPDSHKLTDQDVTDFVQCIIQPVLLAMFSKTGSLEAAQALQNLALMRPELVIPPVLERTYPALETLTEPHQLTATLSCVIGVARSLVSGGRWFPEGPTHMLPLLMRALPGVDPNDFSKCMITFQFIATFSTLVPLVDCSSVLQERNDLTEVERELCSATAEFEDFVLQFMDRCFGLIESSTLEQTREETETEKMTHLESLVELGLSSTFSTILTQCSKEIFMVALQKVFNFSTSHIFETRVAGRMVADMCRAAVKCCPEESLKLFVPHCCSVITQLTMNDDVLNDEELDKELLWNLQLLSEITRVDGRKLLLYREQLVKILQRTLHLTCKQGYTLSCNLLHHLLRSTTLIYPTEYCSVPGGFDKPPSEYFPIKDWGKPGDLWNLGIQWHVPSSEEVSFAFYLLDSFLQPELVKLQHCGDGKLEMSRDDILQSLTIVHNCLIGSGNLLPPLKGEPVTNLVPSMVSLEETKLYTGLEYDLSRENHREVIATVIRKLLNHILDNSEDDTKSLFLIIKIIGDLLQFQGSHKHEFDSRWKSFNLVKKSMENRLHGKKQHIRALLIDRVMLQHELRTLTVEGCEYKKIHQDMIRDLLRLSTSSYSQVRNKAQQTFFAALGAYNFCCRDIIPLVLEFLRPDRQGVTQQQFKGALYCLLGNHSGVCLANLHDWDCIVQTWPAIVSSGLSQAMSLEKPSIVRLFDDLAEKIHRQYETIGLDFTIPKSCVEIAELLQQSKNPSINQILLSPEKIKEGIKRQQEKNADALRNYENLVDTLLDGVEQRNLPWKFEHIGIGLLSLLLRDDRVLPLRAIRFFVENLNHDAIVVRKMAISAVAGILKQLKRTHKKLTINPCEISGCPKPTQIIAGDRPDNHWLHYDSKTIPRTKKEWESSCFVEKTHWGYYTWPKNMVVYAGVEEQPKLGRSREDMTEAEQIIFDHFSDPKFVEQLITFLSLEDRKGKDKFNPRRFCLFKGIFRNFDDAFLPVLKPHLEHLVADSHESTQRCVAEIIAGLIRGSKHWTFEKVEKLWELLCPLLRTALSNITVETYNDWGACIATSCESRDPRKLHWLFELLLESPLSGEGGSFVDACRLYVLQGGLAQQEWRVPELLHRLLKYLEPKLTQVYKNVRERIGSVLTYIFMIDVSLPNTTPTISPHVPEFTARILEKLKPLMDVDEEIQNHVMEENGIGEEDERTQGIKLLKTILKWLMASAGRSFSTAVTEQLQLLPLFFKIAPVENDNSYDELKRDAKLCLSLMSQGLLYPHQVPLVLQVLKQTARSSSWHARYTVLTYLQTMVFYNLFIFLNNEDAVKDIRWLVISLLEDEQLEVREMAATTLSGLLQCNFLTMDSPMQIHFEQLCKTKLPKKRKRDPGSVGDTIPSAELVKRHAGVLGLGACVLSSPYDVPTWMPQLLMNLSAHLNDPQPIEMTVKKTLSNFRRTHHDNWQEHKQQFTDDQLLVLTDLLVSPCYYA
Sequence of human 20S proteasome core particle (human) (P60900 whole entry, looked up): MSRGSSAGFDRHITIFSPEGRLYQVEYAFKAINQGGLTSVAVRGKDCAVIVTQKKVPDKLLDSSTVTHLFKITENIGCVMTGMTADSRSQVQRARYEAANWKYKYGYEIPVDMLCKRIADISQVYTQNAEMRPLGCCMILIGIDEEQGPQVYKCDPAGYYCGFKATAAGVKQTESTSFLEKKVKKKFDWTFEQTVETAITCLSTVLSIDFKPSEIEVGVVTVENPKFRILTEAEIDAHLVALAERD

The first test addresses human 20S proteasome core particle (human) (UniProt P60900).
Experiment: not given
Conditions: not given
As to “human proteasome activator 200 (PA200) (from UniProt Q14997 1-1843) (natural protein)”, the Vmax of cleavage of Suc-LLVY-AMC (chymotryptic-like activity) by PA200-20S, 2.5 nM; 20S alone 3.14 μM/min was 11.4 µM/min.

A further test addresses T1, human proteasome activator 200 (PA200) (human, UniProt Q14997 1-1843).
T1 construct: Carries the cofactors 5,6[PP]2-InsP4 and InsP6 in its two openings; The results say 1,844 residues, the methods 1-1,843; source: Trichoplusia ni (Hi5) insect cells, baculovirus (Bac-to-Bac), purified (Ni-NTA, gel filtration on Superose 6)
In words: cryo-EM structure; 3 μl 20S-CP (approximately 1.4 mg/ml) incubated with 6 μl PA200 (approximately 0.44 mg/ml) in ice for 1 h; single-capped PA200-20S particles selected; 2.72 Å. As to conditions: both partners purified.
As for B1, the binding result was “binds”. The same measure, in the same setting: as for B2, the entry is “binds”.

Turning to B3, the binding result is on record as “binds”. As to B4, the binding result was “binds”. On the same count and under the same terms, as for B5, the entry is “binds”.
